The text below walks through data of patent US20100260773A1 (UCB, published 2010).

Values joined by “and” are separate entries in the source; they are usually repeats but may differ in a detail not shown here. Identical values can stand only once. Bounds are passed on as bounds.

Experiment [1] has as its target T1, human IL-13 (wild type) (human, UniProt P35225 35-146). The experiment can be described thus: cell-based or functional assay.
Experiment [2] deals with T2, cynomolgus monkey IL-13 (cynomolgus monkey, UniProt Q0PW92 21-132). Kind of experiment: cell-based or functional assay.
Experiment [3] concerns the target variant human IL-13 (R130Q) (human) (UniProt P35225). The experiment can be described thus: cell-based or functional assay.
Experiment [4] concerns the target T1, human IL-13 (wild type). The experiment can be described thus: Biacore 3000 SPR; purified Ab652 Fab captured by anti-human F(ab')2, hIL-13 as analyte; average of the table's runs. As to the method: (§1) BIA (Biamolecular Interaction Analysis) was performed using a BIAcore 3000 (BIAcore AB). Affinipure F(ab′)₂ Fragment, goat anti-human IgG, F(ab′)₂ fragment specific (Jackson ImmunoResearch) was immobilised on a CM5 Sensor Chip via amine coupling chemistry to a capture level of ≈4000 response units (RUs). A blank surface was prepared in a similar way, omitting the F(ab′)₂ fragment from the procedure. HBS-EP buffer (10 mM HEPES pH 7.4, 0.15 M NaCl, 3 mM EDTA, 0.005% Surfactant P20, BIAcore AB) was used as the running buffer with a flow rate of 10 μl/min. A 10 μl injection of Ab652 Fab at ˜0.2 μg/mL was used for capture by the immobilised anti-human IgG-F(ab′)₂ to allow sufficient IL-13 binding but also to minimise mass transport limited binding effects. Human IL13 was titrated over the captured Ab652 at various concentrations (10 nM to 0.31 nM) at a flow rate of 30 μL/min The surface was regenerated by a 10 μl it injection of 40 mM HCl, followed by a 5 μl it injection of 5 mM NaOH at a flowrate of 10 μL/min
(§2) Background subtraction binding curves were analysed using the BIAevaluation software (version 3.2) following standard procedures. Kinetic parameters were determined from the fitting algorithm.
For orientation: Surface plasmon resonance follows binding to a sensor surface in real time, without labels.

In experiment [5] the target is T1, human IL-13 (wild type). The experiment can be described thus: Biacore 3000 SPR; Ab652 Fab captured by immobilised anti-human F(ab')2, hIL-13 titrated as analyte; average of 3 determinations. As to the method:
as §1, §2

Another experiment has as its target T3, Rat IL-13 (rat, UniProt P42203 19-131, limits assumed).
T3 sequence (looked up): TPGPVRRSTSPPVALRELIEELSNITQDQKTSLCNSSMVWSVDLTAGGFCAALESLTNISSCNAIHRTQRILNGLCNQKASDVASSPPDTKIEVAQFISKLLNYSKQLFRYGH
Kind of experiment: cell-based or functional assay.

Experiment [6] deals with T2, cynomolgus monkey IL-13. The experiment can be described thus: cell-based or functional assay. This is another data set of the same source.

T1 sequence (P35225 35-146 limits assumed): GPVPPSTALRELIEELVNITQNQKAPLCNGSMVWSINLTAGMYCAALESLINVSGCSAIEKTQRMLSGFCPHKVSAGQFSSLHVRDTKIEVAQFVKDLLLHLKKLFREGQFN
T2 sequence (Q0PW92 entry or part of it): as the sequence (P35225 35-146 limits assumed) above, with G1S, R10K, M42V, S67N, H83R, L100V counted along it
Sequence of variant human IL-13 (R130Q) (human) (P35225 35-146, stated change not applied): as the sequence (P35225 35-146 limits assumed) above

B1: Ab652 (humanised anti-human IL-13 Fab, graft gL1gH2) (Fab, V domains shown)
VH: QVTLKESGPVLVKPTETLTLTCTVSGFSLTNYHVQWIRQPPGKALEWLGVMWSDGDTSFNSVLKSRLTISRDTSKSQVVLTMTNMDPVDTATYYCARDGTIAAMDYFDYWGQGTLVTVSS
VL: DIQMTQSPSSLSASVGDRVTITCLASEDISNYLAWYQQKPGKAPKLLIYHTSRLQDGVPSRFSGSGSGTDFTLTISSLQPEDFATYYCQQGYRFPLTFGGGTKVEIKR
notes: also called Ab652 Fab
What is called Kd is the constant that tells how readily two partners part at equilibrium. The term koff denotes a measure of how fast the partners let go of each other. The term kon denotes the second-order rate constant of association. Turning to B1, in the experiment with human IL-13 (wild type) [1], the “IC50 Ab652 Fab, HEK-Blue STAT-6 assay; IL-13 source E. coli-derived, wild type (250 pg/ml)” value is 1.05 ng/mL; the “IC50 Ab652 Fab, HEK-Blue STAT-6 assay; IL-13 source mammalian (rat fibroblasts), wild type (250 pg/ml)” value worked out at 0.57 ng/mL; the “IC50 Ab652 Fab, HEK-Blue STAT-6 assay; IL-13 source natural human T cell, wild type (250 pg/ml)” value was 2.12 ng/mL; the “IC50 Ab652 Fab, HEK-Blue STAT-6 assay; nebulised Fab (IL-13 source of this row not given)” value is 1.15 ng/mL. The “IC50 Ab652 Fab, HEK-Blue STAT-6 assay; cynomolgus IL-13 on human receptor (1/4,000 = 250 pg/ml)” value in the experiment with cynomolgus monkey IL-13 [2] was determined as 1.61 ng/mL. For the same molecule, the IC50 Ab652 Fab, HEK-Blue STAT-6 assay; IL-13 source natural human T cell, R130Q variant (250 pg/ml) in experiment [3] amounted to 1.66 ng/mL. Moreover, in the experiment with human IL-13 (wild type) [4], the Kd is 0.0134 nM and 0.013 nM; the koff turned out to be 6.27e-05 s⁻¹; the kon was 4.82e+06 M⁻¹ s⁻¹. In the experiment with human IL-13 (wild type) [5], the Kd is 0.0152 nM and 0.015 nM; the koff came to 6.52e-05 s⁻¹; the kon stood at 4.51e+06 M⁻¹ s⁻¹. The “IC50 of Ab652, HEK Blue assay; recombinant mammalian cell derived rat IL-13 (transfected HEK293 supernatant), n = 1” value with Rat IL-13 was 953 ng/ml and 20000 pM. In addition, the “neutralisation potency against cynomolgus IL-13 relative to human IL-13 from rat fibroblasts, HEK Blue assay” value with cynomolgus monkey IL-13 [6] is ≤ 3 fold.
